Measured values from US12570725.
“And” between values parts separate entries of the source, which are not always exact repeats. Identical values can stand only once. Like-named read-outs stand apart in the source and are kept apart here.

B1: DH1017.IgM (antibody, V domains shown)
VH: QVQLQESGPGLVKPSQTLSLTCAVSGGSISSGDSYWSWIRQHPGKGLEWIGSIYYSGSTYYNPSLKSRVTIPIDTSKNQFSLKLSSVTAADTAVYYCARHVGDLRVNDAFDIWGQGTMVTVSS
VL: QSVLTQPPSVSAAPGQKVTISCSGSSSNIGNNFVSWYQRLPGTPPKLLIYDSDKRPSGIPDRFSGSKSGTSATLGITGLQTGDEGDYYCGTWDRSLSVVVFGGGTKLTVL
B2: DH1017.IgG (antibody, V domains shown)
VH: B1 VH
VL: B1 VL

Key:
[1] = molecular target: Dengue virus serotype 4 virion (Dengue virus serotype 4); test: cell-based or functional assay
[2] = molecular target: Dengue virus serotype 1 virion (Dengue virus serotype 1); test: cell-based or functional assay
[3] = molecular target: whole Zika virus (ZIKV) virion (Zika virus); test: cell-based or functional assay
[4] = molecular target: Dengue virus serotype 2 virion (Dengue virus serotype 2); test: cell-based or functional assay
[5] = molecular target: Dengue virus serotype 3 virion (Dengue virus serotype 3); test: cell-based or functional assay
[6] = molecular target: whole Zika virus (ZIKV) virion (Zika virus); test: whole ZIKV virion ELISA; molar conversion with IgM ~970 KDa
[7] = molecular target: whole Zika virus (ZIKV) virion (Zika virus); test: whole ZIKV virion ELISA, 5-fold dilutions from 100 ug/ml
[8] = molecular target: whole Zika virus (ZIKV) virion (Zika virus); test: cell-based or functional assay; remark: listed apart in the source
[9] = molecular target: whole Zika virus (ZIKV) virion (Zika virus); test: whole ZIKV virion ELISA; molar EC50 of IgM compared with IgG
[10] = molecular target: whole Zika virus (ZIKV) virion (Zika virus); test: whole ZIKV virion ELISA; molar conversion with IgG ~150 KDa

| Binder | FRNT50 [1] [µg/mL] | FRNT50 [2] [µg/mL] | FRNT50 [3] [ng/mL] | FRNT50 [4] [µg/mL] | FRNT50 [5] [µg/mL] | EC50 [6] [nM] | EC50 [7] [µg/mL] | FRNT50 [8] | fold difference in neutralizing activity, IgM versus IgG at equal numbers of molecules [8] [fold] | fold difference of molar EC50 against DH1017.IgG [9] [fold] | EC50 [10] [nM] |
| --- | --- | --- | --- | --- | --- | --- | --- | --- | --- | --- | --- |
| B1 | > 5 | > 5 | 6.57 | > 5 | > 5 | 0.474 | 0.046 | 24.7 ng/ml and 25.5 pM | 40 | 6 |  |
| B2 |  |  |  |  |  |  | 0.045 |  |  |  | 3 |
